Article PMC6803640, “Oligomeric state, hydrodynamic properties and target recognition of human Calcium and Integrin Binding protein 2 (CIB2)” (Scientific Reports, 2019)

Columns and labels:
[1] = Analytical size exclusion chromatography; assay type: physicochemical; conditions: analytical SEC, 20 mM HEPES pH 7.4, 150 mM KCl, 1 mM DTT, 1 mM Mg^2+, 2 mM Ca^2+; CIB2 ∼70 µM (A2 band), Rec ∼80 µM, CaM ∼110 µM
Protocol: The molecular weight (MW) of the proteins was determined before and after DSBU-modification as previously described[7] in the same buffer (20 mM HEPES, pH 7.5, 1 mM DTT, 1 mM Mg^2+ and 2 mM Ca^2+). […] Standard calibration curve for MW estimation was the same used in our previous study.

Rec = conditions: presence of Ca^2+; cited from earlier work
Source text: Solvation of their large hydrophobic surfaces might influence the intera ...

Dynamic light scattering = assay type: physicochemical; conditions: 37 °C, fractions eluted from SEC (CIB2 A2 band), mean ± SEM; n = 15 (CIB2), 18 (Rec), 30 (CaM); 1.8 µM CIB2, 11 µM Rec, 7.4 µM CaM
Protocol: DLS measurements were performed using Zetasizer Nano-S (Malvern Instruments) at 37 °C by setting the same parameters for hydrodynamic diameter estimation as in ref.[26]. The estimation was based on 15–30 measurements, each consisting of at least 13 repetitions; data in Table 1 are reported as mean ± standard error of mean (SEM). DLS samples for each protein are the same collected in the Analytical Size Exclusion Chromatography.
His-tagged proteins, and then blocked via amine coupling as explained above. Preparation of the […]
approximately 2250 RU of CIB2 immobilized. In binding experiments, peptide concentration was varied in the 230 nM- 30 μM range for both α7B_M, and α7B_C, and experiments were repeated 4 times, both with the HBS buffer described above (containing 1 mM MgCl2) and with further addition of 2 mM CaCl2. Flow rate was set to 20 μl min−1 in all binding experiments, and the dissociation […]
Figure S1: DLS measurements of the SEC collected peaks. CIB2 band A2 (A), Rec (B) and CaM (C). Each data set consisted of 15-30 measurements (grey lines), with 13-15 repetitions each. Colored lines are referred to the average distribution. Temperature was set to 37°C and samples were equilibrated for 2 min before measurements.
Figure S2: Time-resolved proteolysis experiments. […]

B1: Rec: bovine Rec, Ca^2+-sensor protein (protein, UniProt P21457 2-202, looked up)
Recoverin: GNSKSGALSKEILEELQLNTKFTEEELSSWYQSFLKECPSGRITRQEFQTIYSKFFPEADPKAYAQHVFRSFDANSDGTLDFKEYVIALHMTSAGKTNQKLEWAFSLYDVDGNGTISKNEVLEIVTAIFKMISPEDTKHLPEDENTPEKRAEKIWGFFGKKDDDKLTEKEFIEGTLANKEILRLIQFEPQKVKEKLKEKKL
MW^SEC [1]: 33.5 kDa
concentration above which dimers were isolated (Rec): above 100 μM
DLS Ø hydrodynamic diameter (Dynamic light scattering): 5.0 ± 0.1 nm
